Assay results published in the DeepSol protein solubility set.

assay: soluble on expression in E. coli; label from the status in PepcDB or PDB records

Row | Sequence | soluble on expression in E. coli
1 | MAHHHHHHMGGDVTFSLTKTRDTFADWFDAIMDAAELVDRRYPVKGCVVFRPYGFFMENAIMRLCEEEYAKVGISQILFPTVIPESFLKKESDHIKGFEAECFWVEKGGLQPLEERLALRPTSETAIYSMFSKWVRSYKDLPLKIHQTCTIFRHETKNTKPLIRVREIHWNEAHCCHATAEDAVSQLSDYWKVIDTIFSDELCFKGQKLRRVCWDRFPGADYSEVSDVVMPCGRVLQTAGIHNLGQRFSSTFDILYANKANESVHPYLTCAGISTRVLACALSIHGDSGGLVLPPLIAPIHVVIIPIGCGKKNNQESDQQVLGKVNEIADTLKSKLGLRVSIDDDFSKSMGDKLYYYELKGVPLRIEVGQRDLANGQCIVVPRDVGKDQKRVIPITEVMKVSSHTTENHELVVKNVIKDELDAYKARLKEKAFAFHNSMVTNCKSFDEIVACIENKGGLARFPFYTTEADGEVWDKKLKDACSAEIRGHNPDENVLPGEVCALSGKPAVCYMYCAKSY | soluble
2 | MSLKIAILCASGKVGKEISKEALKRNLEPVCFVRNSSKMNEFLPQAKIVQRDLFELDSKDLIDFDIIIDAFGEWENLSLHKKHIECLSVILQGSKAKLFVVGGAGSLYMDENHTTRLMDMPDFPKEYLDIAKASAEVLEFLRNEKGFKWVYVSPSAIFSPDLPKSNHYKIIGEKFEVNANNESKISYSDYASAMIDIVLNSCYENTRIGVISLEGHHHHHH | soluble
3 | MQEVPPDFEDVHIAEARVDVPSTWRDQIVNTNAVATETHPLKCAEVETQTGSKDNQGTQTDDAGGGRPPSPSKVQASGVADFMAKVEGMVAGELVKATEEHEVLEPFTRAADDEQEPATCIHYLSPFQQDAAANQDLNAT | soluble
4 | DLTGKSIVGYRISGGLDIPIGYGLYVNPSLAFHSKGMKTNLEGVALGALGLNSSLKVKTHYIEIPVHLGYRLSLLNLVSVAVQAGPYFSYAIKGDGTVVRKDGQETTFDIYKDGLKEMINAKRFDVGLGAAAMVGYSNFYLLIGADFGLINTVKDIKPETKNLEATLKNTSFHVGLGIRL | not soluble
5 | MGSDKIHHHHHHMKLICSKANLLKGVNIVSKAVPTRTTMAILECILIDASANEIKLMANDMELGIETIIDGTIEERGIIALDAKIFSEIVRKLPDNDVTIETDASFKTVISCEKAKFNIIGKSGDDFSYIPYVERNESIVLSQFTLKEVIRQTIFSIADNDNNKLMTGELFEIEENKLRVVSLDGHRISIRYIEMKNHYDSKKVVVPGKTLQEISKIIPGSADEDVVIYITNNHIVFEFENTTVVSRLIEGEYFKIDQMLSSDYDTKVRINKRELLDCIDRATLLVKEGDKKPIIMNITDGNMELRINSFIGSMNEDIDIDKDGKDIMIGFNPKFFIDALRVIDEEEVNLYMVNPKAPCFIKDDEGKFIYLILPVNFNTAAN | not soluble
6 | MGSDKIHHHHHHMKILFLSHLDMNLYLFRRPIMEALRKEGHEVIAMCPKGEYFDRFKELGIKAISYEISRESLNPFKELKTLLSIAQKLSELKPDILHTFMLKPNIYGTLASKIASIPYVICSVTGLGSFYIEESFKSRAIRYLIETLSRIVFKIAKKVVFQNEDDRQLFIQKGLVESSKTHLIKGSGINTKLFDPALISPSTLVRYRQELGLEKKHVVLMVARAIAHKGVREYYEAARLLGAFTSDSHLAFLFVGDTDEGNPSCVSSKELYSPHVLWLGHREDILELMALCDIFVLPSYREGIPRTLLEASSLAKPMVTSLAVGCKEVVKEGENGFLVPVGDTKALAQKIHYLVQNPALRLSMGEKARQIAQKEFDVSIIVKAHLELYKEVRGDLQKTL | not soluble
7 | SNAMSFIAIIPARYASTRLPGKPLADIAGKPMVVHVMERALASGADRVIVATDHPDVVKAVEAAGGEVCLTRADHQSGTERLAEVIEHYGFADDDIIVNVQGDEPLVPPVIIRQVADNLAACSAGMATLAVPIASSEEAFNPNAVKVVMDAQGYALYFSRATIPWERERFAQSKETIGDCFLRHIGIYAYRAGFIRRYVNWAPSQLEQIELLEQLRVLWYGEKIHVAVAKAVPAVGVDTQSDLDRVRAIMLNQ | soluble
8 | RQTDFTRPDGSRSTVALLQGNIDQTLKWREDQVIPTIQKYYEQVGKTTADIVILPETAIPVMRQNLPENILAKFAEQAQNNGSALAVGISQYTSDGNGYENAVINLTGYQENNQDGIPYYAKNHLVPFGEYKPLPFLTTPLYKMMDMPLSDFRKGGGKQSALLMKNQKIAFNICYEDGFGDELIAAAKDATLLANASNMAWYGKSNAMYQHLQQSQARAMELGRYMVRATNTGATAIISPKGNIIAQAQPDTETVLEGHIKGYVGETPYMKTG | not soluble
9 | MGSDKIHHHHHHMMRKYSDKKNAQTQNYYKDRFYHAPHTVKSDVNESVFKEDFEVLKTQVEILNSFVELDFWVIEIKKEDNVKTLQMLKTLGYLSFTEASAIDFIADKNGFEVFYQLLNLEKKLRVRIKTFVGVKERLQSVAHVFKGANWSEREIYDMFGIFIINHPNLKRILMPDDWFGHPLLKTYPLKGDEFARWYEIDKIFGKEYREVVGEEQRDSGFADDKDTLNFARLYHEVPKGGQKKEISFKQEYQEDEGVAFVKKVKRDEAKILEKRR | not soluble
10 | MSLHWLFGDQLGPHFLTPGEEGPGPETPLLMIEARSVFRRRRFHRAKAHLVLSAMRHRAAEPGDRVTYVRADTYRQGLARTARGRPVGVHHPTSHAALRLVRALPQVTVGPARGFLVPMTGFAAWAEGHGGKRLRQEDFYRWVRRGHGLLMDGEQPAAGRWNLDHDNREPPPREAASLQVGRPYRPREDDIDEEVRHDLDRWERDGDVSFVGRDGPRLFEGHHHHHH | soluble
11 | MIYKACIRKRCGGVCVGEELKPEKIQEIRLGDCPICGGKGTLKAIQFIHRIPYFGEVMESTVVCERCGYRNSDVIILEEREPRLYEVKVEEEKDLFIRVVRSKSGTIELEELGIKIEPGPAAEGFVSNIEGVLERAKEVLLMARDFKEQENDREAVRRIDELLKYIEEVKEGKKPLTVRIMDPFGNSALIGEKVKSRKLTKEEIRKLSKGPYIVIEPDEVPQQLEHHHHHH | not soluble
12 | MSLNCKQRRYMKILIVDDNEQYRKLLSAIFVDRGWEAIDAPEGNKGMELLREHIPDVILSDIMMPRMDGFQFLRALRTSAFGDIIFIFYTSTYTKASHRDFALSLGADAYIAKPLDPEDIVQALMDILDRKELREGHHHHHH | not soluble
13 | MMSMIEKLKKFTQIPGISGYEERIREEIIREIKDFADYKVDAIGNLIVELGEGEERILFMAHMDEIGLLITGITDEGKLRFRKVGGIDDRLLYGRHVNVVTEKGILDGVIGATPPHLSLERDKSVIPWYDLVIDIGAESKEEALELVKPLDFAVFKKHFSVLNGKYVSTRGLDDRFGVVALIEAIKDLVDHELEGKVIFAFTVQEEVGLKGAKFLANHYYPQYAFAIDSFACCSPLTGDVKLGKGPVIRAVDNSAIYSRDLARKVWSIAEKNGIEIQIGVTGGGTDASAFQDRSKTLALSVPIKYLHSEVETLHLNDLEKLVKLIEALAFEL | soluble
14 | MCTTCGCAEGNLYIEGDEHNPHSAFRSAPFAPAARPALNITGIKTPDFAPSQTAEGDLHYGHGEAGTHAPGMSQRRMLEVEIDVLDKNNRLAERNRARFAARQQLVLNLVSSPGSGKTTLLTETLMKLKDRVPCAVIEGDQQTVNDAARIRATGTPAIQVNTGKGCHLDAQMIADAAPRLPLDDHGILFIENVGNLVCPASFDLGEKHKVAVLSVTEGEDKPLKYPHMFAAASLMLLNKVDLLPYLNFDVEKCIASAREVNPEIEIILISATSGEGMDQWLAWLEAQRCA | not soluble
15 | MRYLELAQLYQKLEKTTMKLIKTRLVADFLKKVPDDHLEFIPYLILGEVFPEWDERELGVGEKLLIKAVAMATGIDAKEIEESVKDTGDLGESIALAVKKKKQKSFFSQPLTIKRVYQTLVKVAETTGEGSQDKKVKYLADLFMDAEPLEAKYLARTILGTMRTGVAEGLLRDAIAMAFHVKVELVERAYMLTSDFGYVAKIAKLEGNEGLAKVQVQLGKPIKPMLAQQAASIRDALLEMGGEAEFEIKYDGARVQVHKDGSKIIVYSRRLENVTRAIPEIVEALKEAIIPEKAIVEGELVAIGENGRPLPFQYVLRRFRRKHNIEEMMEKIPLELNLFDVLYVDGQSLIDTKFIDRRRTLEEIIKQNEKIKVAENLITKKVEEAEAFYKRALEMGHEGLMAKRLDAVYEPGNRGKKWLKIKPTMENLDLVIIGAEWGEGRRAHLFGSFILGAYDPETGEFLEVGKVGSGFTDDDLVEFTKMLKPLIIKEEGKRVWLQPKVVIEVTYQEIQKSPKYRSGFALRFPRFVALRDDKGPEDADTIERIAQLYELQEKMKGKVES | soluble
16 | MDMQHDDLNYEYLYGTTYPLMKNAGKAVADAVMKNYPDARTVCVVAGTGNNGGDAIVAGSILSAKYDVRVLIVTEVRSELARRALSEYGGRVIGLDGMEECMKCDVIIDGIFGVGISGDPKDPYRSVIENINRSCSHVVSVDIPSGLGTRYAVKPEITVTFTMEKYGMNQDNSGKIIVADIGIPPDVRKYAGPGDLLYYPKPDPSSHKGMNGTLAIVGGWEFHGSSVIAALAAERIGLDLVRVFVSPRNYQIVSGYDPGIIVRQVEKLDEKKLSEIYGNSAILLGPGMGKGDDAMEAARKIVSDSRVPMVVDADALDAVGAYSGSFAGRKIIITPHKGEFRRISGFEPTEENAISYARKKGLIVVLKGQVDVITNGEEVHYAKGGNARMTMGGTGDLLAGIISAFLARSVDPMRACLMGTYLNKALGEAAYSKHGYWYTVTDMISEIPGVMGKYIKI | not soluble
17 | MSSTAVQPPPPVPPPPPSAVPSAGKGIHSKLYNGMIGAADKFVPAKLRPLWMHPAGPKTIFFWAPVFKWGLVAAGLSDLARPADTISVSGCAALAATGIIWSRYSLVIIPKNYSLFAVNLFVGITQVVQLARAYHYHQSQEKLKQEQQQPAVQNLEHHHHHH | not soluble
18 | MSLSDDTSVVQDYIKSRDALVVLEQKMPLRDAFGGRYADIFSRFPGVIGRDGFEYFYRYFKNHVAVDVGTATAVTTLRVQAYTSKDAYLINKYLLEMAEKRVNELNDRSRQDSLRYALAEVAGAEAKVKAASTALSKFRSKASLFDPDRQSNIQLELVAKLRGELIAKQAQLSQLRMLSPQNPQIPSLAASIGALEASIASEKGGVAGEKNSLSDRSVEYQRLALEQSFGEKLLASALTSLEQARADAERKQIYLERVAEPNEPDVAMEPKREGHHHHHH | soluble
19 | MGSDKIHHHHHHMQGSRFAFGPFVLDPGAGTLLRNDDPVAVGYRGLKLLAALVGRPGEILEKAELMDAAWPGTAVEEGNLTVQIAQLRKLLGPPADGGEWISTVPRVGYRFTGAIEQLDRAKRKPLPLPDKPSIAVLPFVNLSNDPEQEAFADGLTEDLITDLSRAPGLFVIARNSTFAYKGKAMDVRAIAEELGVRYLLEGSARRAAGRVRINAQLVDAKSGEHLWAERFDRGLDDIFAVQDEATAKIVEALLGRLRAPPPRNRPTNLEAYDLCVRARKLIEESPQTAREAHLLLTRAVSLDPEYAEAHRWLAMNHWMGWVHWGEPVDPNRRIALELARKAVAIDPNDAGCRWVLGNLLAYEHSFEESEAEFAKAFELDPNEADAWATLSDIAVLAGRVEEGLEHIRKAFRLNPYPASWYYLTLGEAQYAARDYEAAVETLRREETYRTSSRRFLAASLAQLGRLDEARAEVEMFLIGNPHFTTSYWVWTEPFRDDAMRDHFVDGFRKAGLPD | not soluble
